Data set [1] addresses HtrACj wild type, proteolytically active (plasmid pUZCj4) (Campylobacter jejuni (strain NCTC11168)) (UniProt Q0P928). Kind of data set: casein zymography (non-reducing SDS-PAGE); 50 ng purified HtrA in Laemmli buffer on 10% SDS-PAGE gels with 0.1% casein, non-reducing, renatured in 2.5% Triton X-100, developed overnight at 37°C.
For data set [2] the target is unchanged. Nature of the data set: SEC; Superose 12HR10/30, 50 mM Na2HPO4/NaH2PO4 pH 7.4, 300 mM NaCl, room temperature; 41 µM HtrA pre-incubated with 41 µM β-casein (molar ratio 1:1) for 10 min at 37°C. In general terms: In gel filtration, larger molecules generally elute earlier.
For data set [3] the target is unchanged. Nature of the data set: SEC; Superose 12HR10/30, 50 mM Na2HPO4/NaH2PO4 pH 7.4, 300 mM NaCl, room temperature, 41 µM HtrA, no substrate; proteins purified under native conditions without refolding step.
Data set [4] has as its target HtrAHp S221A, proteolytically inactive variant of HtrA from H. pylori 26695 (plasmid pUZ3) (Helicobacter pylori (strain 26695)). Nature of the data set: SEC; Superose 12HR10/30, 50 mM Na2HPO4/NaH2PO4 pH 7.4, 300 mM NaCl, room temperature, 41 µM HtrA, no substrate; S/A mutants purified in presence of urea and refolded.
Data set [5] concerns the target HtrACj S197A, expressed without the predicted signal peptide (residues 17-472), protease-inactive mu (Campylobacter jejuni (strain 81-176)). Kind of data set: cryo-EM structure.
Data set [6] concerns the target HtrACj S197A, proteolytically inactive variant (plasmid pUZCj5) (Campylobacter jejuni (strain NCTC11168)) (UniProt Q0P928). Kind of data set: SEC; Superose 12HR10/30, 50 mM Na2HPO4/NaH2PO4 pH 7.4, 300 mM NaCl, room temperature, 41 µM HtrA, no substrate; S/A mutants purified in presence of urea and refolded.
Data set [7] has the same target. Described as above. This is another data set of the same source.
For data set [8] the target is unchanged. Kind of data set: SEC; Superose 12HR10/30, 50 mM Na2HPO4/NaH2PO4 pH 7.4, 300 mM NaCl, room temperature, 41 µM HtrA, no substrate; proteins purified under native conditions without refolding step.
Data set [9] deals with the molecule itself. Nature of the data set: SEC; Superose 12HR10/30, 50 mM Na2HPO4/NaH2PO4 pH 7.4, 300 mM NaCl, room temperature, 41 µM HtrA, no substrate; S/A mutants purified in presence of urea and refolded.

Several values for one entry are separate records, joined by “and”; a condition that tells them apart may be missing. Equal values may be shown once. Bounds are passed on as bounds.

A word on the stoichiometry N: it is the number of molecules, sites or subunits per partner or assembly.

As to “HtrACj wild type, proteolytically active (plasmid pUZCj4) (from UniProt Q0P928 1-472) (enzyme)”, the stoichiometry N in data set [1] was found to be 3; in data set [2], 6; in [3] it was 6.

In the case of “HtrAHp S221A, proteolytically inactive variant of HtrA from H. pylori 26695 (plasmid pUZ3) (enzyme)”, the stoichiometry N in data set [4] is 3 and 6.

For “HtrACj S197A, expressed without the predicted signal peptide (residues 17-472), protease-inactive mu (enzyme)”, the stoichiometry N in [5] is 12.

Regarding “HtrACj S197A, proteolytically inactive variant (plasmid pUZCj5) (from UniProt Q0P928 1-472) (enzyme)”, the figures for the stoichiometry N in data set [6], in data set [7] and in [8] were 12, more than 12 and 12, respectively.

B1: HtrAEc S210A, proteolytically inactive variant of HtrA/DegP from E. coli (plasmid pJS17) (enzyme, UniProt P0C0V0 27-474, looked up)
chain: AETSSATTAQQMPSLAPMLEKVMPSVVSINVEGSTTVNTPRMPRNFQQFFGDDSPFCQEGSPFQSSPFCQGGQGGNGGGQQQKFMALGSGVIIDADKGYVVTNNHVVDNATVIKVQLSDGRKFDAKMVGKDPRSDIALIQIQNPKNLTAIKMADSDALRVGDYTVAIGNPFGLGETVTSGIVSALGRSGLNAENYENFIQTDAAINRGNAGGALVNLNGELIGINTAILAPDGGNIGIGFAIPSNMVKNLTSQMVEYGQVKRGELGIMGTELNSELAKAMKVDAQRGAFVSQVLPNSSAAKAGIKAGDVITSLNGKPISSFAALRAQVGTMPVGSKLTLGLLRDGKQVNVNLELQQSSQNQVDSSSIFNGIEGAEMSNKGKDQGVVVNNVKTGTPAAQIGLKKGDVIIGANQQAVKNIAELRKVLDSKPSVLALNIQRGDSTIYLLMQ
notes: also called S/A mutant of HtrAEc
For the molecule B1, the “stoichiometry N” value in [9] is 6.

The record behind these values is PMC7524362, “Functional analysis and cryo-electron microscopy of Campylobacter jejuni serine protease HtrA” (Gut Microbes, 2020).
